# According to US20090298769A1:
# Legend:
# [1] = molecular target: αvβ3 integrin on human endothelial cells (HUVEC; vessels of human prostate tissue) (human) (UniProt P06756); assay: flow cytometry (FACS), WOW-1 Fab on HUVEC
# [2] = molecular target: αvβ3 integrin on human endothelial cells (HUVEC; vessels of human prostate tissue) (human) (UniProt P06756); assay: flow cytometry, WOW-1 Fab on HUVEC
# [3] = molecular target: DiYF β3 integrin (αvβ3 with β3 Tyr747Phe and Tyr759Phe) on lung endothelial cells of knock-in mice (mouse) (UniProt P43406); assay: flow cytometry, WOW-1 Fab on DiYF mouse lung EC
# Chain of DiYF β3 integrin (αvβ3 with β3 Tyr747Phe and Tyr759Phe) on lung endothelial cells of knock-in mice (mouse) (P43406 31-1044, chain 1 of 2): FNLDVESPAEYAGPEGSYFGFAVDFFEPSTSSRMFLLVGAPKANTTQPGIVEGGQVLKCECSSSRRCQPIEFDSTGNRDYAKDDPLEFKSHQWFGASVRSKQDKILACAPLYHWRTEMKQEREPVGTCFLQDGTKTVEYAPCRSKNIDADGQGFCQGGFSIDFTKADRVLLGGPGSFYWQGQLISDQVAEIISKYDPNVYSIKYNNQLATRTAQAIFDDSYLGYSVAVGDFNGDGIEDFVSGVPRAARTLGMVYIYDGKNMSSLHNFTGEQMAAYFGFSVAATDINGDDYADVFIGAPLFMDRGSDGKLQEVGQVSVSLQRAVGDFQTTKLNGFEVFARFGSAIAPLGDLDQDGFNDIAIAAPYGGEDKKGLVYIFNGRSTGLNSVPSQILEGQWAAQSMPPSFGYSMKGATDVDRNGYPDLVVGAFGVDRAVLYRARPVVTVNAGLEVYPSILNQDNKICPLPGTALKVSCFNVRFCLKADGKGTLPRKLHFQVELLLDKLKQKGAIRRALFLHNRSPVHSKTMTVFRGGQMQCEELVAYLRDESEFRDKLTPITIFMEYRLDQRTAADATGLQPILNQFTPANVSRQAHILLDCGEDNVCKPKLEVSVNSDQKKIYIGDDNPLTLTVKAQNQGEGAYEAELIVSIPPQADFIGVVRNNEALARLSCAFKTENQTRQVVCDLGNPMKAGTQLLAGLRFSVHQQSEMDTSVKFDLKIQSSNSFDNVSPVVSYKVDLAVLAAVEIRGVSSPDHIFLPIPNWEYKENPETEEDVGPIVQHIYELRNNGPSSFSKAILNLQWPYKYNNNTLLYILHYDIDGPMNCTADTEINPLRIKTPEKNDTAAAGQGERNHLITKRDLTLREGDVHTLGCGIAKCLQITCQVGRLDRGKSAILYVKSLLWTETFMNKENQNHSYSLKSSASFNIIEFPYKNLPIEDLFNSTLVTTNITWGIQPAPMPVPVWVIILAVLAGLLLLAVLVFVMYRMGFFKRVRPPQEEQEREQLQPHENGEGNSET
# Chain of DiYF β3 integrin (αvβ3 with β3 Tyr747Phe and Tyr759Phe) on lung endothelial cells of knock-in mice (mouse) (O54890 26-787 Y772F/Y784F, chain 2 of 2, further chain): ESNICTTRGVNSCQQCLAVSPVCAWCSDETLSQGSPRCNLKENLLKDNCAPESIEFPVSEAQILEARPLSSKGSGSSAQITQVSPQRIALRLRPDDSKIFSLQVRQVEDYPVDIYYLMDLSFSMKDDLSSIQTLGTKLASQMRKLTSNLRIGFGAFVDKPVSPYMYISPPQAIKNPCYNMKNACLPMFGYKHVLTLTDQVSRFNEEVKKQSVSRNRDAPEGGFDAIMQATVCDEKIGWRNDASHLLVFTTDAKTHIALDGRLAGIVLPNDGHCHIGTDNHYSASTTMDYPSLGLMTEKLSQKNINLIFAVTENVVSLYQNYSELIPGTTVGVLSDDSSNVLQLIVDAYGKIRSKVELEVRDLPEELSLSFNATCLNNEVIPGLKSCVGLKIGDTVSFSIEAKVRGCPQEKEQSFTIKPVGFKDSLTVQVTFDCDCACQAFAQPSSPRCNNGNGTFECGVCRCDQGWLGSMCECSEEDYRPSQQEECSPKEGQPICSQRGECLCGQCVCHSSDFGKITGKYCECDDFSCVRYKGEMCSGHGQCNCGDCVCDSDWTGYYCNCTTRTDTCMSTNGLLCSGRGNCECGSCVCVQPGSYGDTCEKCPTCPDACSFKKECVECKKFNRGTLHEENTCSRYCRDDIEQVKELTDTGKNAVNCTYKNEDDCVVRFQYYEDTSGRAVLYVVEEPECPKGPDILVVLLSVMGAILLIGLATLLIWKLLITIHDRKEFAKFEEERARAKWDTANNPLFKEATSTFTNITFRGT
# [4] = molecular target: αvβ3 integrin on human endothelial cells (HUVEC; vessels of human prostate tissue) (human) (UniProt P06756); assay: immunohistochemistry of human prostate tissue
# [5] = molecular target: αvβ3 integrin on human endothelial cells (HUVEC; vessels of human prostate tissue) (human) (UniProt P06756); assay: flow cytometry, WOW-1 Fab on HUVEC transfected with dominant negative c-Src
# [6] = molecular target: αvβ3 integrin, wild type, on mouse lung endothelial cells (mouse) (UniProt P43406); assay: flow cytometry, WOW-1 Fab on WT mouse lung EC
# [7] = molecular target: DiYF β3 integrin (αvβ3 with β3 Tyr747Phe and Tyr759Phe) on lung endothelial cells of knock-in mice (mouse) (UniProt P43406); assay: flow cytometry, FITC-fibrinogen on DiYF mouse lung EC
# [8] = molecular target: αvβ3 integrin, wild type, on mouse lung endothelial cells (mouse) (UniProt P43406); assay: flow cytometry, FITC-fibrinogen on WT mouse lung EC
# [9] = molecular target: DiYF β3 integrin (αvβ3 with β3 Tyr747Phe and Tyr759Phe) on lung endothelial cells of knock-in mice (mouse) (UniProt P43406); assay: cell-based or functional assay
# [10] = molecular target: VEGFR-2 of mouse lung endothelial cells (mouse) (UniProt P35918); assay: cell-based or functional assay
# Chain of VEGFR-2 of mouse lung endothelial cells (mouse) (P35918 20-1345): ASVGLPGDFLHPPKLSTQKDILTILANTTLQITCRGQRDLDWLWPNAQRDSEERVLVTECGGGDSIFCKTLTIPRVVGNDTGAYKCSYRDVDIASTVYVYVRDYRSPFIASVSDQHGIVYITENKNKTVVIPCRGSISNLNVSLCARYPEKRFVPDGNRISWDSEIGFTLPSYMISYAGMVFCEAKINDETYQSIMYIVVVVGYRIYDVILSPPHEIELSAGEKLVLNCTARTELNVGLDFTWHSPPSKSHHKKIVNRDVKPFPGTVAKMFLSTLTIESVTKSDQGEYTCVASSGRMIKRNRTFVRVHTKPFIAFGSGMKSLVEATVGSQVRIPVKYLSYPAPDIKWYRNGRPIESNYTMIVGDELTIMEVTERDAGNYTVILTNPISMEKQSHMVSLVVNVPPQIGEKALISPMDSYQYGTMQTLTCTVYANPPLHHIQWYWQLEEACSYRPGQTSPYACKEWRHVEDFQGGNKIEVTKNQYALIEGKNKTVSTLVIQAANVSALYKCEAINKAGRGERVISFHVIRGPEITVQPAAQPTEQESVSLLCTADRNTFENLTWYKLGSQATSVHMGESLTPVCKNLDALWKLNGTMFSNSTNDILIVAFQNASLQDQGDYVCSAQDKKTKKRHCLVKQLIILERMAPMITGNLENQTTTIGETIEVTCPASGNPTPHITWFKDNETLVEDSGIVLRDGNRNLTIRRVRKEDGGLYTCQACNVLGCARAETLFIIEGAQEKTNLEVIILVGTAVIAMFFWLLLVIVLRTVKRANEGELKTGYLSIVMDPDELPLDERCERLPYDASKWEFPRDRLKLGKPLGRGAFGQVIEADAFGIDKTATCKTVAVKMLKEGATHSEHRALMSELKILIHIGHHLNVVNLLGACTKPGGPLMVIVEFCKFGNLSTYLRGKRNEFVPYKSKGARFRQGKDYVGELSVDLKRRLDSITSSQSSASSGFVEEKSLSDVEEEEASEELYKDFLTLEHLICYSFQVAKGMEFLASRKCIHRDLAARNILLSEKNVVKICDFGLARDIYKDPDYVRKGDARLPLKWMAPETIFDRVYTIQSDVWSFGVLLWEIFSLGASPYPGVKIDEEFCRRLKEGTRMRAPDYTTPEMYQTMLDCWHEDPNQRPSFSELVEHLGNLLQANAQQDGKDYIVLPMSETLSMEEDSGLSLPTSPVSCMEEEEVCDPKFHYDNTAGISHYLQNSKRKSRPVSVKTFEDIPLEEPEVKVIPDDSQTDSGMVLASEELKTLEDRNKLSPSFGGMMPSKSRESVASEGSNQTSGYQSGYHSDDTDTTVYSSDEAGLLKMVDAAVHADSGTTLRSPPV
# Chain of αvβ3 integrin on human endothelial cells (HUVEC; vessels of human prostate tissue) (human) (P06756 31-1048, chain 1 of 2): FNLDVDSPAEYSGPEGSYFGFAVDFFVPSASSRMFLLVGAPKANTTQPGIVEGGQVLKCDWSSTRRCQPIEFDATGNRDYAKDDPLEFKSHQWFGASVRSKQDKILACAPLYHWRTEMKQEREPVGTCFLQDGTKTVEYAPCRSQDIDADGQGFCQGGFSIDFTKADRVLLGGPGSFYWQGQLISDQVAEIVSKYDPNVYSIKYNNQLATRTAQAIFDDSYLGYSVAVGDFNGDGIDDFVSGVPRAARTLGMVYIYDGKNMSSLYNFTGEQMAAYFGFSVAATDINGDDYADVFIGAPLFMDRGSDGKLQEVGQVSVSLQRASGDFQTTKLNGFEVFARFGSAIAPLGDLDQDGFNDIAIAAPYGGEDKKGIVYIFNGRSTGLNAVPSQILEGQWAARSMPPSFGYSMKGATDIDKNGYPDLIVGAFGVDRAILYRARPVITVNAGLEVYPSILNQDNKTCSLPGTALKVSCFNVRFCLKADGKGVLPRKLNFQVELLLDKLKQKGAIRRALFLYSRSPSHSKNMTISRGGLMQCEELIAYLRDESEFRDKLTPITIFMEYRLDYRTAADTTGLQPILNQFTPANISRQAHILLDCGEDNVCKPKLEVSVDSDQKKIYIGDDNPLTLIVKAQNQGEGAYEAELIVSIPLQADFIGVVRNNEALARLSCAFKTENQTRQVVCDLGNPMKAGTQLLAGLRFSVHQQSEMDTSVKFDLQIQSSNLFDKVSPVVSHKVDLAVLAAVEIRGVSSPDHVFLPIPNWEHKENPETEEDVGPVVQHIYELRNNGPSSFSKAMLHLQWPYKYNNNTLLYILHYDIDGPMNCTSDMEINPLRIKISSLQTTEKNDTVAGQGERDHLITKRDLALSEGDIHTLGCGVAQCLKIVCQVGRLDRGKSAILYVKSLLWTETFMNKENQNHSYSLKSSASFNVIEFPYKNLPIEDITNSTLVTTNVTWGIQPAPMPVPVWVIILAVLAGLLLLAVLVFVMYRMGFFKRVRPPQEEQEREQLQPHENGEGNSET
# Chain of αvβ3 integrin on human endothelial cells (HUVEC; vessels of human prostate tissue) (human) (P05106 27-788, chain 2 of 2, further chain): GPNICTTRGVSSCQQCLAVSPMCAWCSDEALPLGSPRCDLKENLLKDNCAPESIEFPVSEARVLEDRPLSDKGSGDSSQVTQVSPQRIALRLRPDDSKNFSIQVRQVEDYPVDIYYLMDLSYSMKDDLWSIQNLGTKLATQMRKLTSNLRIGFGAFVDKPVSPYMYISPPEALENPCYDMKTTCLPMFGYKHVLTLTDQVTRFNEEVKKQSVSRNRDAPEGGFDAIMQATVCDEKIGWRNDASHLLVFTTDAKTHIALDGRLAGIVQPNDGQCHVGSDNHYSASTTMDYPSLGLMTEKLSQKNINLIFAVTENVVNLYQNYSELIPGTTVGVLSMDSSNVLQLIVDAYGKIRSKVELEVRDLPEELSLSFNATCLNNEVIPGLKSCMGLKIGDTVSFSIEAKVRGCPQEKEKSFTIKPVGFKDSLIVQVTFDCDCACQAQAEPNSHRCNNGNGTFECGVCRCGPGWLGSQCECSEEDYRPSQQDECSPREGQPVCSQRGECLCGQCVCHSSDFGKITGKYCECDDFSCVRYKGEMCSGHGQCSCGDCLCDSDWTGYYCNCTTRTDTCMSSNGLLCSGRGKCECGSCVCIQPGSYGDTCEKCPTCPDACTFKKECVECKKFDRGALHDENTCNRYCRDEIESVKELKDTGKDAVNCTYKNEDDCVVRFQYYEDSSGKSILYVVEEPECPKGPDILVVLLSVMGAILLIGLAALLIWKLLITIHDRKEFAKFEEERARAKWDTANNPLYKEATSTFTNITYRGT
substance,measurement,setting,value
WOW-1 Fab,fold increase of binding on VEGF-A165 stimulation,[1],6 fold
same,fold increase of binding on VEGF stimulation,[2],6 fold
same,fold increase of binding on MnCl2 stimulation,[3],14 fold
same,fold increase of binding on VEGF stimulation,[3],3.5 fold
same,"fold increase of WOW-1 density, prostate carcinoma against normal prostate tissue",[4],2.7 fold
same,fold reduction of VEGF-triggered αvβ3 activation (WOW-1 binding) by dominant negative c-Src,[5],> 2 fold
same,fold increase of binding on MnCl2 stimulation,[6],30 fold
same,fold increase of binding on VEGF stimulation,[6],9 fold
FITC-labeled fibrinogen (ligand),fold increase of binding on MnCl2 stimulation,[7],17 fold
same,fold increase of binding on VEGF stimulation,[7],3 fold
same,fold increase of binding on MnCl2 stimulation,[8],> 40 fold
same,fold increase of binding on VEGF stimulation,[8],> 6 fold
vitronectin (ligand),"fold decrease in cell adhesion to vitronectin, DiYF EC against WT EC",[9],2 fold
VEGF-A165 (ligand),VEGFR-2 phosphorylation in DiYF EC,[10],2.5 fold
same,VEGFR-2 phosphorylation in WT EC,[10],6 fold
